In patent publication US20220315908A1, “NOVEL GARDNERELLA ENDOLYSINS AND USES THEREOF” (priority 2019, published 2022):

Legend:
[1] = test system: G. leopoldii strain Gv_11; assay: Quantitative reduction in viable CFU assay in bacterial suspension; type: cell-based, Gardnerella leopoldii; settings: 5 hours, pH 5.0, anaerobic, 10 ul endolysin (0.2 mg/ml where possible) + 90 ul 5e7 CFU/ml, average of triplicate
Protocol: The lysis activity on the four main species of Gardnerella of 91 constructs (natural and domain-swapped endolysins) was quantitatively assessed using the method described in Reference Example 2. Briefly, 90 ul 5e7 CFU/ml of the indicated strain were incubated for 5 hours at pH 5.0 under anaerobic conditions with 10 ul endolysin (concentration adjusted to 0.2 mg/ml where possible, see Table 4).
The results are shown in FIGS. 8A to 8D together with Tables 5A to 5C. In FIGS. 8A to 8D, the logarithmic Y axis depicts the count of surviving cells. The dotted line indicates the limit of detection (LOD) given by plating of 2 ul of the reaction mix (500 CFU/ml). Each combination of the natural 10 H-domains and the natural 9 B-regions was assessed, including the natural endolysins (H1B1, H2B2, H3B3, etc.), plus H6B6. […] The activity of each construct was measured on each of the 4 main Gardnerella species G. vaginalis sensu stricto, G. leopoldii, G. piotii, and G. swidsinkii. All conditions have been measured in triplicate. The survival after 5 hours incubation at pH 5.0 under anaerobic conditions with endolysins vs. buffer was measured by quantitative plating. The values indicate the log 10 of the ratio of surviving CFU for treated vs. untreated cells. The average of the triplicate measurements is used. In tables 5A and 5B, high negative log 10 values, e.g. −6.7, −5.5, −4.8 etc. are associated with high enzymatic activity, while log 10 values closer to zero or even positive log 10 values are associated with low or no enzymatic activity. […] Inversely, a reduction value of −3.7 means a 10^3.7-fold (=5012-fold) reduction of viable CFU in treated sample vs. untreated control.
(§1) Gardnerella cells were recovered from cryo stock by plating on Chocolate Agar plates (Beckton Dickinson) and incubating for 48 h at 37° C. under anaerobic conditions. For Lactobacilli, BD Schaedler/5% sheep blood agar plates were used instead. Colonies were scraped from the plate, resuspended in Hardy Broth or NYC-III-HS-5.0 at the pH as indicated, and the suspension adjusted to OD (610 or 620 nm as indicated) 0.1. It has to be noted that two Tecan Microplate readers, having respectively a 610 nm or 620 nm filter, have been used interchangeably in the experiments. Although it doesn't make any difference for the experiments, the exact wavelength used is specified in each example. If not stated otherwise, 90 μl cell suspension was mixed with 10 μl endolysin solution, for the different species/endolysin combinations, in 384-well plates. OD(610-620 nm as indicated) was measured at the beginning of the reaction and at the end, either as two measurement points or as a continuous kinetic in a Tecan F200 Microplate reader. The reactions were incubated for 5 hours (or otherwise the time indicated) at 37° C. under anaerobic, micro-aerophilic or aerobic conditions as indicated. Anaerobic conditions intend that oxygen was fully depleted from the container in which the bacteria are incubated (Sigma-Aldrich anaerobic jar or sealable lunch box) with an anaerobic sachet, and the lack of oxygen was confirmed with an anaerobic indicator inside the container. Where micro-aerophilic conditions are indicated, the candle-in-a-jar method was used (tea candle lit in an appropriate sealable container, which reduces oxygen levels until the flame dies out). Then each well was diluted in 5 steps (10^−1 to 10^−5) using 96-U-well bottom plates, and 2 μl of each dilution of each reaction mix are plated on BD Chocolate agar plates or BD Schaedler/5% sheep blood agar plates for Gardnerella and Lactobacilli, respectively, for detecting and quantifying surviving CFU. Detection plates were incubated at 37° C. for 48 hours under anaerobic conditions.

Gardnerella cells = assay: Turbidity reduction (OD) assay of Gardnerella suspensions; type: cell-based; settings: Gv_10 pH 6.0, Gv_17 pH 7.0, Gv_23 pH 7.4; aerobic, room temperature; vs buffer
Protocol: FIGS. 4A to 4C show three enzymatic activity assays where the enzymatic activity of natural Gardnerella prophage endolysins of the present disclosure is measured by detecting the change in turbidity of a suspension of Gardnerella cells. In FIG. 4A, the enzymatic activity of the endolysins is measured by detecting the change in turbidity of a suspension of the G. leopoldii strain Gv_10 at pH 6.0. In FIG. 4B, the enzymatic activity of the endolysins is measured by detecting the change in turbidity of a suspension of the G. piotii strain Gv_17 at pH 7.0. In FIG. 4C, the enzymatic activity of the endolysins is measured by detecting the change in turbidity of a suspension of the G. swidsinskii strain Gv_23 at pH 7.4. Treatment was conducted in a medium adjusted to the appropriate pH in a photometric cuvette against buffer. Then, the change in turbidity was assessed by measuring the optical density (OD) at 600 nm. As a result, the drop in turbidity was more pronounced for the endolysin treated groups than for the buffer, indicating enzymatic activity.
To test the activity of the purified endolysins, the turbidity change of Gardnerella suspensions (see Table 2) was measured at 610-620 nm using essentially the method described in Reference Example 2, where 95 ul of bacterial suspension in Hardy Broth at the indicated pH was mixed with 5 ul of endolysin solution in a photometric cuvette under aerobic conditions at room temperature. In turbidity reduction assays, a decrease in light scattering (i.e., turbidity reduction) of a suspension of live cells can be used in a spectrophotometer to assay the activity of peptidoglycan hydrolases. The reduction in optical density over time (minutes) can be used to calculate a rate of hydrolysis. Results are compared to a “no-enzyme added, buffer only” control preparation treated identically for the same period of time. In this manner, a specific activity of the enzyme preparation can be reported as ΔOD/time/ul lysin protein. […] As explained above, due to the low content of peptidoglycan in the cell wall, the fact that a peptidoglycan-degrading enzyme such as the identified endolysins could efficiently lyse the bacterial cell walls was an unexpected and surprising discovery.
as §1, with “Then each well was diluted in 5 steps (10^−1 to 10^−5) using 96-U-well bottom plates, and 2 μl of each dilution of each reaction mix are plated on BD Chocolate agar plates or BD Schaedler/5% sheep blood agar plates for Gardnerella and Lactobacilli, respectively, for detecting and quantifying surviving CFU. Detection plates were incubated at 37° C. for 48 hours under anaerobic conditions.” left out

Molecule | log 10 of the ratio of surviving CFU for treated vs. untreated cells [1] [log 10] | enzymatic activity by drop in turbidity (capacity to lyse Gardnerella cell walls) (Gardnerella cells)
H12B12: natural Gardnerella prophage endolysin from strain 3549624 (protein, EL12_strain_3549624_non-prophage) MSKKGIDVSVWQGDIDFNAVKASGVEFVIIRAGYGIGHKDKWFEENYRKAKTAGLDVGSYWYSYASSAGEVALEAQSCVNILSGKSFEYPVYFDLEEKSQLNRGRDFCDSLITSFCNKLEACGYYAGFYTSLSVANNLVSSHVRDRYALWIAQWNTHCSYQGSYGLWQYSSSGSVNGIAGRVDMDYAYVDYPSVIKNAGLNGYQNGGSYTAPQTSSIDEVAREVINGDWGNGIERKNRLTSAGYDYTSVQNKVNELLGVKAYRKSVDELAREVIRGTWGNGKTRKQRLTQAGYDYNAVQKRVNELL | −1.0 | active
H11B11: natural Gardnerella prophage endolysin from strain JCP8017A (protein, EL11_strain_JCP8017A, natural Gardnerella prophage endolysin from strain JCP8017A) MSKRGIDVSVWQGDIDFNAVKASGVEFVIIRAGYGIGHKDKWFEQNYRKAKTTGLDVGAYWYSYASSAGEAAEEAQSCVNILSGKSFEYPVYFDLEEKSQLNRGRDFCDSLITSFCNKLETYGYYAGFYTSLSVANNLVSSHVRDRYALWIAQWNTHCDYQGSYGLWQYSSSGSVDGIAGRVDMDYTYVDYPSVIKKAGLNGYKNGGSYTAPQTSSIDEVAREVINGDWGNGNERKNRLTSAGYDYTSVQNKVNELLGVKAYRKSVDELAREVIRGTWGNGSTRKQRLTQAGYDYDAVQKRVNELL | −1.6 | active
